First the molecules themselves.
B1: AB200-R1H32-R2Vk18 (antibody)
heavy: QVQLVQSGAEVKKPGSSVKVSCKASGGTFSNYWMHWVRQAPGQGLEWMGATYRSHSDTYYNQKFKSRVTITADKSTSTAYMELSSLRSEDTAVYYCARGAIYHGYDVIDNWGQGTLVTVSSASTKGPSVFPLAPSSKSTSGGTAALGCLVKDYFPEPVTVSWNSGALTSGVHTFPAVLQSSGLYSLSSVVTVPSSSLGTQTYICNVNHKPSNTKVDKKVEPKSC
light: DIQMTQSPSSLSASVGDRVTITCRASQSISSYINWYQQKPGKAPKLLIYAASSLQSGVPSRFSGSGSGTDFTLTISSLQPEDFATYYCQQFRKIPWTFGQGTKLEIKRTVAAPSVFIFPPSDEQLKSGTASVVCLLNNFYPREAKVQWKVDNALQSGNSQESVTEQDSKDSTYSLSSTLTLSKADYEKHKVYACEVTHQGLSSPVTKSFNRGEC
B2: AB200-R1H32-R2Vk27 (antibody)
heavy: QVQLVQSGAEVKKPGSSVKVSCKASGGTFSNYWMHWVRQAPGQGLEWMGATYRSHSDTYYNQKFKSRVTITADKSTSTAYMELSSLRSEDTAVYYCARGAIYHGYDVIDNWGQGTLVTVSSASTKGPSVFPLAPSSKSTSGGTAALGCLVKDYFPEPVTVSWNSGALTSGVHTFPAVLQSSGLYSLSSVVTVPSSSLGTQTYICNVNHKPSNTKVDKKVEPKSC
light: DIQMTQSPSSLSASVGDRVTITCRASQSISSYLNWYQQKPGKAPKLLIYATSNIQSGVPSRFSGSGSGTDFTLTISSLQPEDFATYYCQQYRKIPWSFGQGTKLEIKRTVAAPSVFIFPPSDEQLKSGTASVVCLLNNFYPREAKVQWKVDNALQSGNSQESVTEQDSKDSTYSLSSTLTLSKADYEKHKVYACEVTHQGLSSPVTKSFNRGEC
B3: AB200-R1H32-R2Vk37 (antibody)
heavy: QVQLVQSGAEVKKPGSSVKVSCKASGGTFSNYWMHWVRQAPGQGLEWMGATYRSHSDTYYNQKFKSRVTITADKSTSTAYMELSSLRSEDTAVYYCARGAIYHGYDVIDNWGQGTLVTVSSASTKGPSVFPLAPSSKSTSGGTAALGCLVKDYFPEPVTVSWNSGALTSGVHTFPAVLQSSGLYSLSSVVTVPSSSLGTQTYICNVNHKPSNTKVDKKVEPKSC
light: DIQMTQSPSSLSASVGDRVTITCRASQSISSYINWYQQKPGKAPKLLIYATSNLQSGVPSRFSGSGSGTDFTLTISSLQPEDFATYYCQQYRKIPWSFGQGTKLEIKRTVAAPSVFIFPPSDEQLKSGTASVVCLLNNFYPREAKVQWKVDNALQSGNSQESVTEQDSKDSTYSLSSTLTLSKADYEKHKVYACEVTHQGLSSPVTKSFNRGEC
B4: AB200-R1H32-R2Vk38 (antibody)
heavy: QVQLVQSGAEVKKPGSSVKVSCKASGGTFSNYWMHWVRQAPGQGLEWMGATYRSHSDTYYNQKFKSRVTITADKSTSTAYMELSSLRSEDTAVYYCARGAIYHGYDVIDNWGQGTLVTVSSASTKGPSVFPLAPSSKSTSGGTAALGCLVKDYFPEPVTVSWNSGALTSGVHTFPAVLQSSGLYSLSSVVTVPSSSLGTQTYICNVNHKPSNTKVDKKVEPKSC
light: DIQMTQSPSSLSASVGDRVTITCRASQSISSYINWYQQKPGKAPKLLIYATSNLQSGVPSRFSGSGSGTDFTLTISSLQPEDFATYYCQQFRKIPWTFGQGTKLEIKRTVAAPSVFIFPPSDEQLKSGTASVVCLLNNFYPREAKVQWKVDNALQSGNSQESVTEQDSKDSTYSLSSTLTLSKADYEKHKVYACEVTHQGLSSPVTKSFNRGEC
B5: AB200-R1H32-R2Vk39 (antibody)
heavy: QVQLVQSGAEVKKPGSSVKVSCKASGGTFSNYWMHWVRQAPGQGLEWMGATYRSHSDTYYNQKFKSRVTITADKSTSTAYMELSSLRSEDTAVYYCARGAIYHGYDVIDNWGQGTLVTVSSASTKGPSVFPLAPSSKSTSGGTAALGCLVKDYFPEPVTVSWNSGALTSGVHTFPAVLQSSGLYSLSSVVTVPSSSLGTQTYICNVNHKPSNTKVDKKVEPKSC
light: DIQMTQSPSSLSASVGDRVTITCRASQSISSYINWYQQKPGKAPKLLIYATSNIQSGVPSRFSGSGSGTDFTLTISSLQPEDFATYYCQQYRRLPWSFGQGTKLEIKRTVAAPSVFIFPPSDEQLKSGTASVVCLLNNFYPREAKVQWKVDNALQSGNSQESVTEQDSKDSTYSLSSTLTLSKADYEKHKVYACEVTHQGLSSPVTKSFNRGEC
B6: AB200-R1H32-R2Vk28 (antibody)
heavy: QVQLVQSGAEVKKPGSSVKVSCKASGGTFSNYWMHWVRQAPGQGLEWMGATYRSHSDTYYNQKFKSRVTITADKSTSTAYMELSSLRSEDTAVYYCARGAIYHGYDVIDNWGQGTLVTVSSASTKGPSVFPLAPSSKSTSGGTAALGCLVKDYFPEPVTVSWNSGALTSGVHTFPAVLQSSGLYSLSSVVTVPSSSLGTQTYICNVNHKPSNTKVDKKVEPKSC
light: DIQMTQSPSSLSASVGDRVTITCRASQSISSYLNWYQQKPGKAPKLLIYATSNIQSGVPSRFSGSGSGTDFTLTISSLQPEDFATYYCQQFRKIPWTFGQGTKLEIKRTVAAPSVFIFPPSDEQLKSGTASVVCLLNNFYPREAKVQWKVDNALQSGNSQESVTEQDSKDSTYSLSSTLTLSKADYEKHKVYACEVTHQGLSSPVTKSFNRGEC
B7: AB200-R1H26-R2Vk48 (antibody)
heavy: QVQLVQSGAEVKKPGSSVKVSCKASGGSFSNYWMHWVRQAPGQGLEWMGATYRIHSDTFYNQKFKGRVTITADKSTSTAYMELSSLRSEDTAVYYCARGAIYHGYDVLDNWGQGTLVTVSSASTKGPSVFPLAPSSKSTSGGTAALGCLVKDYFPEPVTVSWNSGALTSGVHTFPAVLQSSGLYSLSSVVTVPSSSLGTQTYICNVNHKPSNTKVDKKVEPKSC
light: DIQMTQSPSSLSASVGDRVTITCRASQSISSYINWYQQKPGKAPKLLIYATSNLQIGVPSRFSGSGSGTDFTLTISSLQPEDFATYYCQQFRKIPWTFGQGTKLEIKRTVAAPSVFIFPPSDEQLKSGTASVVCLLNNFYPREAKVQWKVDNALQSGNSQESVTEQDSKDSTYSLSSTLTLSKADYEKHKVYACEVTHQGLSSPVTKSFNRGEC
B8: AB200-R1H26-R2Vk4 (antibody)
heavy: QVQLVQSGAEVKKPGSSVKVSCKASGGSFSNYWMHWVRQAPGQGLEWMGATYRIHSDTFYNQKFKGRVTITADKSTSTAYMELSSLRSEDTAVYYCARGAIYHGYDVLDNWGQGTLVTVSSASTKGPSVFPLAPSSKSTSGGTAALGCLVKDYFPEPVTVSWNSGALTSGVHTFPAVLQSSGLYSLSSVVTVPSSSLGTQTYICNVNHKPSNTKVDKKVEPKSC
light: DIQMTQSPSSLSASVGDRVTITCRASQSISSYLNWYQQKPGKAPKLLIYATSNIQSGVPSRFSGSGSGTDFTLTISSLQPEDFATYYCQQFRKLPWSFGQGTKLEIKRTVAAPSVFIFPPSDEQLKSGTASVVCLLNNFYPREAKVQWKVDNALQSGNSQESVTEQDSKDSTYSLSSTLTLSKADYEKHKVYACEVTHQGLSSPVTKSFNRGEC
B9: AB200-R1H26-R2Vk7 (antibody)
heavy: QVQLVQSGAEVKKPGSSVKVSCKASGGSFSNYWMHWVRQAPGQGLEWMGATYRIHSDTFYNQKFKGRVTITADKSTSTAYMELSSLRSEDTAVYYCARGAIYHGYDVLDNWGQGTLVTVSSASTKGPSVFPLAPSSKSTSGGTAALGCLVKDYFPEPVTVSWNSGALTSGVHTFPAVLQSSGLYSLSSVVTVPSSSLGTQTYICNVNHKPSNTKVDKKVEPKSC
light: DIQMTQSPSSLSASVGDRVTITCRASQSISSYINWYQQKPGKAPKLLIYATSNIQSGVPSRFSGSGSGTDFTLTISSLQPEDFATYYCQQFRKLPWSFGQGTKLEIKRTVAAPSVFIFPPSDEQLKSGTASVVCLLNNFYPREAKVQWKVDNALQSGNSQESVTEQDSKDSTYSLSSTLTLSKADYEKHKVYACEVTHQGLSSPVTKSFNRGEC
B10: AB200-R1H26-R2Vk8 (antibody)
heavy: QVQLVQSGAEVKKPGSSVKVSCKASGGSFSNYWMHWVRQAPGQGLEWMGATYRIHSDTFYNQKFKGRVTITADKSTSTAYMELSSLRSEDTAVYYCARGAIYHGYDVLDNWGQGTLVTVSSASTKGPSVFPLAPSSKSTSGGTAALGCLVKDYFPEPVTVSWNSGALTSGVHTFPAVLQSSGLYSLSSVVTVPSSSLGTQTYICNVNHKPSNTKVDKKVEPKSC
light: DIQMTQSPSSLSASVGDRVTITCRASQSISSYINWYQQKPGKAPKLLIYATSNLQIGVPSRFSGSGSGTDFTLTISSLQPEDFATYYCQQFRKLPWSFGQGTKLEIKRTVAAPSVFIFPPSDEQLKSGTASVVCLLNNFYPREAKVQWKVDNALQSGNSQESVTEQDSKDSTYSLSSTLTLSKADYEKHKVYACEVTHQGLSSPVTKSFNRGEC
B11: AB200-R1H26-R2Vk17 (antibody)
heavy: QVQLVQSGAEVKKPGSSVKVSCKASGGSFSNYWMHWVRQAPGQGLEWMGATYRIHSDTFYNQKFKGRVTITADKSTSTAYMELSSLRSEDTAVYYCARGAIYHGYDVLDNWGQGTLVTVSSASTKGPSVFPLAPSSKSTSGGTAALGCLVKDYFPEPVTVSWNSGALTSGVHTFPAVLQSSGLYSLSSVVTVPSSSLGTQTYICNVNHKPSNTKVDKKVEPKSC
light: DIQMTQSPSSLSASVGDRVTITCRASQSISSYINWYQQKPGKAPKLLIYAASSLQSGVPSRFSGSGSGTDFTLTISSLQPEDFATYYCQQYRKIPWSFGQGTKLEIKRTVAAPSVFIFPPSDEQLKSGTASVVCLLNNFYPREAKVQWKVDNALQSGNSQESVTEQDSKDSTYSLSSTLTLSKADYEKHKVYACEVTHQGLSSPVTKSFNRGEC
B12: AB200-R1H26-R2Vk6 (antibody)
heavy: QVQLVQSGAEVKKPGSSVKVSCKASGGSFSNYWMHWVRQAPGQGLEWMGATYRIHSDTFYNQKFKGRVTITADKSTSTAYMELSSLRSEDTAVYYCARGAIYHGYDVLDNWGQGTLVTVSSASTKGPSVFPLAPSSKSTSGGTAALGCLVKDYFPEPVTVSWNSGALTSGVHTFPAVLQSSGLYSLSSVVTVPSSSLGTQTYICNVNHKPSNTKVDKKVEPKSC
light: DIQMTQSPSSLSASVGDRVTITCRASQSISSYINWYQQKPGKAPKLLIYATSNLQSGVPSRFSGSGSGTDFTLTISSLQPEDFATYYCQQFRKLPWSFGQGTKLEIKRTVAAPSVFIFPPSDEQLKSGTASVVCLLNNFYPREAKVQWKVDNALQSGNSQESVTEQDSKDSTYSLSSTLTLSKADYEKHKVYACEVTHQGLSSPVTKSFNRGEC

The nature of one series: ThermoFluor thermostability (Tm). Type of series: physicochemical. The settings on record: Fab fragment; light chain clone paired with heavy chain AB200_R1_VH32. Background: In DSF a fluorescence change marks the thermal transition of the protein.
Turning to B1, the Tm amounted to 79.872 °C. Still for that read-out and setting: in the case of B2 it was 76.729 °C; in that of B3, 76.708 °C. Still for that read-out and setting: the value for B4 was 80.727 °C. Same read-out and setting: the value for B5 was 76.077 °C. Turning to B6, the Tm was 79.945 °C.

The same series, now with this note: Light chain screening Round 2; Fab, paired with heavy chain AB200_R1_VH26.
With B7, the Tm is 83.862 °C. Same read-out and setting: in the case of B8 it was 81.832 °C; in that of B9, 81.764 °C. With B10, the Tm was found to be 82.921 °C. As for B11, the Tm is 78.993 °C. Still for that read-out and setting: in the case of B12 it was 82.640 °C.
